Source: US20110124556 (published 2011)
Positions of bridges follow the written chain, without caps; N, C: chain ends. Non-standard residues stand in square brackets, D forms with d. Chains are numbered I, II in the order given. No end group written: not given here. Hyp = O=C(O)[C@@H]1C[C@@H](O)CN1; βturn = not defined here

biological target: human insulin receptor (HIR) (human, UniProt P06213); assay: competition

Binder | Kd [nM]
SLEEEWAQIEEVWGRSESFYDWFERQLG [S572] | 4.8
SLEEEWAQIEEVWGRPSESFYDWFERQLG [S570] | 0.73
FHENFYDAFVRQVSKK [S222] | > 20
SLEEEWAQIEAEVWGRGAPSESFYDWFERQLG [S574] | 0.0092
Ac-SIEEEWAQIKCDVWGRGPSESFYDWFERQLG (ends and bridges not checked) [S568] | 0.0043
S229 (not fully specified; listing feature) chain 1: SDGFYNAIELLSX chain 2: KHLCVLEELFWGASLFGYCSGKKX | 4.4
WLEQERAWIWCEIQGSGCRA [S263 (D8B12)] | > 20000
LDQEWAWVQCEAYGRGCPSESFYDWFERQL [S503] | 2.1
WPGYAWLS [S317] | > 20000
LDRQFYRYFQDLLVGFM [S260] | 2300
S441 (peptide) chain 1: ESFYDWFERQLGGGGK chain 2: WAWVQCEVYGRGCPS | 120
NSFYEALRMLSSK [S121] | 31
SLEEEWAWVQCEVYGRGCPSESFYDWFERQL [S534] | 0.01
SLEEEWAQIECEVYGRGCPSESFYDWFERQL (not fully specified (N-terminus); ends and bridges not checked) [S557] | 0.02
GSLDESFYDWFERQLGGGSGGSWLDEEWAQVQCEVYGRGCPS [S543] | 0.019
S438 (peptide) chain 1: ESFYDWFERQLGGGGK chain 2: DQEWAWVQCEVYGRGCPS | 30
SLEEEWAQVECEVWGRGCPS [S548] | 4.1
SLEEEWAQIECEVWGRGCPKGFYGWFRRRRG [S584] | 9.3
RWPNFYGYFESLLTHFS [S257] | 14000
NANFYDWFVAELG [S241] | 16000

Binder | Kd [nM]
S378 (listing feature) chain 1: GSLDESFYDWFERQLGKKKX chain 2: GSLDESFYDWFERQLGKKKX | 65
S433 (peptide) chain 1: ESFYDWFERQLGGGGK chain 2: WLDQEWAWVQ | 110
DPFYQGLWEWLRESGEE [S289] | > 2000
AFYDWFAKK [S167] | > 2000
RD[Hyp]FYDWFDD[dI] [S268] | 450
SSNFYQALMLLS [S129] | 2900
EHWNTVDPFYFTLFEWLRESG [S177] | 27000
S359 (listing feature) chain 1: XDWLQRNANFYDWFVAEL chain 2: XDWLQRNANFYDWFVAEL | 700
AHENFYDWFVRQVSKK [S113] | 590
SLEEEWAQVECEVYGRGCPS [S547] | 49
SLEEEWAQVEAEVYGRGAPSGSLDESFYDWFERQLG [S551] | 0.072
SLEHEWAQVECEVYGRGCPSGSLDESFYDWFERQLG [S537] | 0.044
SLEEEWAQVECEVWGRGCPSGSLDESFYDWFERQLG [S541] | 0.0078
S591 (protein) chain 1: LEEEWAQIECEVWGRGCSGSLDESF chain 2: LEEEWAQIECEVWGRGCSGSLDESF | 0.13
AAAAFYDWFAAAAAKK [S168] | 38
SLEEEWAQIECEVWGRGCPSY [S592] | 17
SLEEEWAQIESEVWGRSESFYDWFERQLG [S573] | 0.036
LDQEWAQVQCEVYGRGCPSESFYDWFERQL [S533] | 0.067
SLEEEWAQIQAEVYGNPNSESFYDWFERQL [S602] | 0.031
LEEEWAQVECEVYGRGCPSESFYDWFERQL [S536] | 0.083

Binder | Kd [nM]
SLEEEWAQIECEVWGRGCPKGFYGWFRRRG [S582] | 2.5
SDGFYNAIELLS [S118] | 24000
SLEEEWAQIECEVWGRGCPSGSLDESFYDWFERQL [S560] | 0.014
S454 (not fully specified; listing feature) chain 1: GSLDESFYDWFERQLGKKKX chain 2: EWLDQEWAWVQCEVYGRGCPSEEKX | 0.38
S437 (peptide) chain 1: ESFYDWFERQLGGGGK chain 2: LDQEWAWVQCEVYGRGCPS | 0.69
FYDWFERQLG [S392] | 38
S580 (not fully specified (bridges); printed as SLEEEWAQVECEVYGRGC-βturn-ESFYDWFERQLG; ends and bridges not checked; also: chain 1 continues via βturn into chain 2 (C-N fusion)) chain 1: SLEEEWAQVECEVYGRGC-βturn chain 2: ESFYDWFERQLG | 0.012
SLEEEWAQIECEVWGRGCSESFYDWFERQL [S559] | 0.021
GSLDESFYDWFERQLGKKKS [S373] | 120
DWLQRNANFYDWFVAELG [S236] | 100
S379 (not fully specified; listing feature) chain 1: GSLDESFYDWFERQLGKKKX chain 2: GSLDESFYDWFERQLGKKKX | 56
WLDQEWAWVQCEVYGRGCPSGGSGGSGRVDWLQRNANFYDWFVAELG [S511] | 3.8
SIEEEWAQIKCDVWGRGCPPGLLDESFYHWFDRQLR [S520] | 0.02
GSLDESFYDWFERQLGKKKXXKEWLDQEWAWVQCEVYGRGCPSEE (not fully specified (residues 19, 20, 21); printed as GSLDESFYDWFERQLGKKK-Ald-17-Ald-KEWLDQEWAWVQCEVYGRGCPSEE; cysteine pairing not given here; also: two peptides (1-19 and 22-45) joined by linker 17 between the Ald group on K19 and an N-terminal Ald on the second peptide) [S453] | 0.57
FHENFYDWFVAQVSKK [S108] | 750
S456 (not fully specified; listing feature) chain 1: GSLDESFYDWFERQLGKK chain 2: XKEWLDQEWAWVQCEVYGRGCPSEE | 2.4
FHENAYDWFVRQVSKK [S219] | > 2000
S170 (disulfide I:1-II:1; not fully specified; ends not checked) chain 1: CGFHENFYDWFVRQVSKK chain 2: CGFHENFYDWFVRQVSKK | 700
SLEEEWAQIEEVWGRGSESFYDWFERQLG [S571] | 1.8
SLEEEWAQVECEVYGRGCPSFYDWFERQL [S531] | 0.075
